Results taken from US20120329711A1, “GLP-1 RECEPTOR AGONIST COMPOUNDS WITH A MODIFIED N-TERMINUS” (Nordisk A/S, priority 2009, published 2012).
Like-named read-outs stand apart in the source and are kept apart here.

Experiments:
human GLP-1 receptor [1] = target: T1, human GLP-1 receptor (Homo sapiens, UniProt P43220)
human GLP-1 receptor [2] = target: T1, human GLP-1 receptor; assay: SPA displacement of [^125I]-GLP-1(7-36)NH2 from BHK membranes with the human GLP-1 receptor, 2.0% HSA (high albumin)
[3] = target: Human Serum Albumin (human) (UniProt P02768); assay: shift of the GLP-1 receptor IC50 (SPA displacement of ^125I-GLP-1) between 2.0% and 0.005% HSA, which the filing takes as an indication of albumin binding
human GLP-1 receptor [4] = target: T1, human GLP-1 receptor; assay: SPA displacement of [^125I]-GLP-1(7-36)NH2 from BHK membranes with the human GLP-1 receptor, 0.005% HSA (low albumin)
human GLP-1 receptor [5] = target: T1, human GLP-1 receptor; remark: listed apart in the source

Row | Substance | EC50 of cAMP formation (AlphaScreen cAMP assay) (human GLP-1 receptor [1]) | IC50 (human GLP-1 receptor [2]) | ratio [(IC50/nM) high HSA]/[(IC50/nM) low HSA] [3] | IC50 (human GLP-1 receptor [4]) | EC50 of cAMP formation (AlphaScreen cAMP assay) (human GLP-1 receptor [5])
1 | N^9-(5-oxo-5-phenylpentanoyl), N^ε26-[2-[2-[2-[[2-[2-[2-[[(4S)-4-carboxy-4-(17-carboxyheptadecanoylamino)butanoyl]amino]ethoxy]ethoxy]acetyl]amino]ethoxy]ethoxy]acetyl]-[Arg^34]-GLP-1-(9-37)-peptide | – | – | > 300 | > 40 nM | > 8 nM
2 | N^3-{2-[2-(1H-Imidazol-4-yl)-methylcarbamoyl]-2-methyl-propionyl}-[2-(2-{2-[2-(2-{2-[(S)-4-Carboxy-4-(17-carboxyheptadecanoylamino)-butyrylamino]ethoxy}ethoxy)-acetylamino]ethoxy}-ethoxy)acetyl][Arg^17,Arg^20,Arg^33,Lys^38]GLP-1A(3-37)-peptide | < 2.1 nM | – | – | – | –
3 | N^9-{2-[2-(1H-Imidazol-4-yl)-ethylcarbamoyl]-2-methyl-propionyl}-N^ε26-{2-[2-(2-{2-[2-(2-{(S)-4-Carboxy-4-[10-(4-carboxy-phenoxy)-decanoylamino]-butyrylamino}-ethoxy)-ethoxy]-acetylamino}-ethoxy)-ethoxy]-acetyl}, N^ε37-{2-[2-(2-{2-[2-(2-{(S)-4-Carboxy-4-[10-(4-carboxy-phenoxy)-decanoylamino]-butyrylamino}-ethoxy)-ethoxy]-acetylamino}-ethoxy)-ethoxy]-acetyl}[Arg^34,Lys^37]GLP-1(9-37)-peptide | < 2.1 nM | < 900 nM | > 10 | < 40 nM | –
4 | N^9-{2-[2-(1H-Imidazol-4-yl)-propylcarbamoyl]-2-methyl-propionyl}-N^ε36-(2-{2-[2-(17-carboxyheptadecanoylamino)ethoxy]ethoxy}acetyl) [Glu^30,Lys^36]GLP-1(9-37)Glu^38-peptide amide | < 2.1 nM | < 900 nM | > 10 | < 40 nM | –
5 | N^9-{2-[2-(1H-Imidazol-4-yl)methylcarbamoyl]-2-methyl-propionyl}-N^ε36-(2-{2-[2-(17-carboxyheptadecanoylamino)ethoxy}ethoxy]acetyl)[Glu^30,Lys^36]GLP-1(9-37) Glu^38-peptide amide | < 2.1 nM | < 900 nM | > 10 | < 40 nM | –

Continued, values first:

Row | EC50 of cAMP formation (AlphaScreen cAMP assay) (human GLP-1 receptor [1]) | IC50 (human GLP-1 receptor [2]) | ratio [(IC50/nM) high HSA]/[(IC50/nM) low HSA] [3] | IC50 (human GLP-1 receptor [4]) | EC50 of cAMP formation (AlphaScreen cAMP assay) (human GLP-1 receptor [5]) | Substance
6 | < 2.1 nM | < 900 nM | > 10 | < 40 nM | – | N^9-{2-[2-(1H-Imidazol-4-yl)-ethylcarbamoyl]-2-methyl-propionyl}-N^ε26-[2-(2-{2-[2-(2-{2-[(S)-4-Carboxy-4-(17-carboxyheptadecanoylamino)butyrylamino]ethoxy}ethoxy)acetylamino]ethoxy}ethoxy)acetyl][His^31,Gln^34]GLP-1(9-37)-peptide
7 | < 2.1 nM | < 900 nM | > 10 | < 40 nM | – | N^9-{2-[2-(1H-Imidazol-4-yl)-ethylcarbamoyl]-2-methyl-propionyl}-N^ε36-(2-{2-[2-(17-carboxyheptadecanoylamino)ethoxy]ethoxy}acetyl) (Glu^30,Lys^36)GLP-1(9-37) Glu^38-peptide amide
8 | < 2.1 nM | < 900 nM | > 10 | < 40 nM | – | N^9-[2,2-dimethyl-3-oxo-3-(pyridin-2-ylmethylamino)propanoyl], N^ε26-[2-[2-[2-[[2-[2-[2-[[(4S)-4-carboxy-4-[10-(4-carboxyphenoxy)decanoylamino]butanoyl]amino]ethoxy]ethoxy]acetyl]amino]ethoxy]ethoxy]acetyl], N^ε37-[2-[2-[2-[[2-[2-[2-[[(4S)-4-carboxy-4-[10-(4-carboxyphenoxy)decanoylamino]butanoyl]amino]ethoxy]ethoxy]acetyl]amino]ethoxy]ethoxy]acetyl]-[Arg^34,Lys^3]-GLP-1-(9-37)-peptide
9 | < 2.1 nM | < 900 nM | > 10 | < 40 nM | – | N^9-{2-[2-(1H-Imidazol-4-yl)-ethylcarbamoyl]-2-methyl-propionyl}N^ε26-{2-[2-(2-{2-[2-(2-{(S)-4-Carboxy-4-[10-(4-carboxy-phenoxy)-decanoylamino]-butyrylamino}-ethoxy)-ethoxy]-acetylamino}-ethoxy)-ethoxy]-acetyl}, N^ε37-{2-[2-(2-{2-[2-(2-{(S)-4-Carboxy-4-[10-(4-carboxy-phenoxy)-decanoylamino]-butyrylamino}-ethoxy)-ethoxy]-acetylamino}-ethoxy)-ethoxy]-acetyl}[Arg^34,Lys^37]GLP-1(9-37)Glu^38-peptide
10 | < 2.1 nM | < 900 nM | > 10 | < 40 nM | – | N^9-{2-[2-(1H-Imidazol-4-yl)-ethylcarbamoyl]-2-methyl-propionyl}-N^ε26-{2-[2-(2-{2-[2-(2-{(S)-4-[4-(4-tert-Butyl-phenyl)-butyrylamino]-4-carboxy-butyrylamino}-ethoxy)-ethoxy]-acetylamino}-ethoxy)-ethoxy]-acetyl}, N^ε37-{2-[2-(2-{2-[2-(2-{(S)-4-[4-(4-tert-Butyl-phenyl)-butyrylamino]-4-carboxy-butyrylamino}-ethoxy)-ethoxy]-acetylamino}-ethoxy)-ethoxy]-acetyl}[Arg^34, Lys^37]GLP-1(9-37)-peptide
11 | < 2.1 nM | < 900 nM | > 10 | < 40 nM | – | N^9-[-{2-[2-(1H-Imidazol-4-yl)-ethylcarbamoyl]-2-methyl-propionyl}-N^ε18-[2-(2-[2-(2-[2-(2-((S)-3-[1-(19-Carboxy-nonadecanoyl)-piperidine-4-carboxyamino]-3-carboxypropionylamino)ethoxy)ethoxy]acetylamino)ethoxy]ethoxy)acetyl][Lys^18,Glu^22, Gln^34]GLP-1(9-37)-peptide
12 | < 2.1 nM | < 900 nM | > 10 | < 40 nM | – | N^9-{2-[2-(1H-Imidazol-4-yl)-ethylcarbamoyl]-2-methyl-propionyl}N^ε26-[2-(2-{2-[2-(2-{2-[(S)-4-Carboxy-4-(17-carboxyheptadecanoylamino)butyrylamino]ethoxy}ethoxy)acetylamino]ethoxy}ethoxy)acetyl][Arg^34]GLP-1(9-37)-peptide
